B1: Pistol ribozyme (parent)
chain: GGGUCGUUGUUCCAUAAUCGCGUGGAUAUGGCACGCAAGUUUCUACCGGGCACCGUAAAUGUCCGACUGGAGCCGUUCGGGCGGCUAUAAACAGACCUCAGGCCCGAAGCGUGGCGGCACCUGCCGCCGGUGGUAAAAAAGAUCGGAAGAGCACACGUCU

Variants of: B1
Test: aptazyme ON/OFF ratio, guanine; higher = stronger switching; co-transcriptional cleavage with and without guanine

Which “aptazyme ON/OFF ratio” value does the source give for U8A G9C U10G C12A C13G here?
Its value is 1.03.

Which “aptazyme ON/OFF ratio” value does the source give for U7A U8G G9A U11G C12A C13G here?
The value was 1.39.

With U7A U8A G9C U10C U11C C12A C13G as the variant, how does the “aptazyme ON/OFF ratio” value read?
Its value is 1.01.

For U7A U8A G9C U10G U11C C12U C13A, which “aptazyme ON/OFF ratio” value is on record?
The value was 1.15.

With U8G G9U C12G C13A as the variant, how does the “aptazyme ON/OFF ratio” value read?
The value was 1.3.

With U7G U8A U10G C12A C13A as the variant, how does the “aptazyme ON/OFF ratio” value read?
The value was 1.58.

With U7A U8G G9U U10G C12A as the variant, how does the “aptazyme ON/OFF ratio” value read?
Its value is 1.21.

Which “aptazyme ON/OFF ratio” value does the source give for U7G U10C U11A C12A C13U here?
The value was 1.16.

For U8G G9C U10A C12U C13U, which “aptazyme ON/OFF ratio” value is on record?
The value was 1.07.

For U8C G9C U10C C12U C13A, which “aptazyme ON/OFF ratio” value is on record?
The value was 1.02.

For U8C G9U U10C C13A, which “aptazyme ON/OFF ratio” value is on record?
Its value is 1.03.

Which “aptazyme ON/OFF ratio” value does the source give for U8G U10A U11C C12U C13A here?
The value was 1.2.

Which “aptazyme ON/OFF ratio” value does the source give for U10C C12U C13U here?
The value was 1.21.

Which “aptazyme ON/OFF ratio” value does the source give for U7A U8G U10C U11G C12U C13A here?
The value was 1.26.

For U7A U8A G9U U10A U11C C13G, which “aptazyme ON/OFF ratio” value is on record?
The value was 1.1.

With U7G U8G U10A U11G C12G as the variant, how does the “aptazyme ON/OFF ratio” value read?
The value was 1.2.

Which “aptazyme ON/OFF ratio” value does the source give for U7C U8A G9A U10G C12G C13U here?
Its value is 1.27.

With U7C U8G G9U U10C U11A C12U C13A as the variant, how does the “aptazyme ON/OFF ratio” value read?
The value was 1.24.

Which “aptazyme ON/OFF ratio” value does the source give for U7G G9A U10G C12A C13A here?
The value was 1.08.

With U7G U8G G9C U10A C13U as the variant, how does the “aptazyme ON/OFF ratio” value read?
The value was 1.03.

For U7C C12A C13G, which “aptazyme ON/OFF ratio” value is on record?
Its value is 1.1.

Which “aptazyme ON/OFF ratio” value does the source give for U8C G9C U10A U11G C12A C13A here?
Its value is 1.16.

Which “aptazyme ON/OFF ratio” value does the source give for U7C U8C U11A C12A C13A here?
Its value is 1.2.

For U7C U8C G9A U10C U11A C12A C13U, which “aptazyme ON/OFF ratio” value is on record?
The value was 1.18.

Which “aptazyme ON/OFF ratio” value does the source give for U7A U8C G9C U11G C13A here?
The value was 1.05.

With U7C U8G U11C C12U C13U as the variant, how does the “aptazyme ON/OFF ratio” value read?
The value was 1.35.

Which “aptazyme ON/OFF ratio” value does the source give for U8G U10C U11A C13A here?
Its value is 1.15.

Which “aptazyme ON/OFF ratio” value does the source give for U7A G9C U10G U11A here?
Its value is 1.03.

For U7A U8C G9C U10C C12A C13G, which “aptazyme ON/OFF ratio” value is on record?
The value was 1.13.

With U7G U8C G9A U10A U11G C13A as the variant, how does the “aptazyme ON/OFF ratio” value read?
Its value is 1.13.

With U7A U8G G9U U10C U11A C12U C13U as the variant, how does the “aptazyme ON/OFF ratio” value read?
Its value is 1.36.

With U7A U8A G9C U10C U11C C12A C13A as the variant, how does the “aptazyme ON/OFF ratio” value read?
The value was 1.

For U7C G9U U10C U11G C12G C13A, which “aptazyme ON/OFF ratio” value is on record?
The value was 1.1.

For U7G U8A G9U U11C C13U, which “aptazyme ON/OFF ratio” value is on record?
The value was 1.09.

For U7G G9C U11A C12A C13G, which “aptazyme ON/OFF ratio” value is on record?
The value was 1.27.

Which “aptazyme ON/OFF ratio” value does the source give for U7A U8G G9A U10A U11G C13A here?
Its value is 1.13.

Which “aptazyme ON/OFF ratio” value does the source give for U7A U8A G9C U10A U11C C12G C13A here?
Its value is 1.18.

For U7A U8G G9A U10A C13G, which “aptazyme ON/OFF ratio” value is on record?
The value was 1.18.

With U7C G9A U10G U11A C12U C13G as the variant, how does the “aptazyme ON/OFF ratio” value read?
Its value is 1.14.

For U7A U8G G9C U10C U11G C12A C13A, which “aptazyme ON/OFF ratio” value is on record?
The value was 1.17.

Which “aptazyme ON/OFF ratio” value does the source give for U8A U10A U11A here?
Its value is 1.14.

Which “aptazyme ON/OFF ratio” value does the source give for U7A U8A G9A U10G C12A C13U here?
The value was 1.2.

With U8G G9U U10A U11G C12G as the variant, how does the “aptazyme ON/OFF ratio” value read?
The value was 1.27.

For U8G G9C U10A U11A C12G C13G, which “aptazyme ON/OFF ratio” value is on record?
Its value is 1.18.

With U7C U8C G9U U10G U11C C12A C13A as the variant, how does the “aptazyme ON/OFF ratio” value read?
The value was 1.18.

For U7C U8C U10G U11C C12G, which “aptazyme ON/OFF ratio” value is on record?
Its value is 1.4.

With U8A G9U U11G C12G as the variant, how does the “aptazyme ON/OFF ratio” value read?
Its value is 1.12.

With U8G G9A U10C U11A C13U as the variant, how does the “aptazyme ON/OFF ratio” value read?
The value was 1.08.

Which “aptazyme ON/OFF ratio” value does the source give for G9C U11C C12A C13G here?
The value was 1.09.

For U7C U8A G9C U11A C12A C13U, which “aptazyme ON/OFF ratio” value is on record?
Its value is 1.15.

For U7G U8G U11C C12U C13G, which “aptazyme ON/OFF ratio” value is on record?
The value was 1.3.

With U7G U8A U10G U11A C12G as the variant, how does the “aptazyme ON/OFF ratio” value read?
The value was 1.43.

Which “aptazyme ON/OFF ratio” value does the source give for U7C G9A U10C U11A C12U here?
The value was 1.34.

With U8A U10A C13A as the variant, how does the “aptazyme ON/OFF ratio” value read?
The value was 1.05.

With U7G U8A G9A U10A U11A C12G C13U as the variant, how does the “aptazyme ON/OFF ratio” value read?
Its value is 1.14.

Which “aptazyme ON/OFF ratio” value does the source give for U7C U8C G9U U11G C12G C13G here?
Its value is 1.14.

For U7C G9C U10C U11G C12G C13A, which “aptazyme ON/OFF ratio” value is on record?
Its value is 1.11.

With U7C U8A U10G C12A as the variant, how does the “aptazyme ON/OFF ratio” value read?
The value was 1.21.

Which “aptazyme ON/OFF ratio” value does the source give for G9U U11A C13U here?
The value was 1.44.

Which “aptazyme ON/OFF ratio” value does the source give for U7G U8C G9U U10A U11A here?
The value was 4.34.

Which “aptazyme ON/OFF ratio” value does the source give for U7C G9C U11C C13A here?
The value was 1.02.

For U7C U8A G9C U10G U11C C13U, which “aptazyme ON/OFF ratio” value is on record?
Its value is 1.09.

With U7A U8G U10G U11G C12U C13A as the variant, how does the “aptazyme ON/OFF ratio” value read?
Its value is 1.31.

With G9C U10A C12U C13A as the variant, how does the “aptazyme ON/OFF ratio” value read?
The value was 1.24.

For U7A U8A G9C C12G C13G, which “aptazyme ON/OFF ratio” value is on record?
Its value is 1.17.

Which “aptazyme ON/OFF ratio” value does the source give for U7A G9U U11A C13U here?
The value was 1.1.

With U7C U10G as the variant, how does the “aptazyme ON/OFF ratio” value read?
The value was 1.65.

With U8C U10A U11A C12U as the variant, how does the “aptazyme ON/OFF ratio” value read?
Its value is 1.22.

Which “aptazyme ON/OFF ratio” value does the source give for U8G C12A C13U here?
The value was 1.12.

For U7A G9C U10A C12A C13G, which “aptazyme ON/OFF ratio” value is on record?
Its value is 1.09.

For U8C U10G C13A, which “aptazyme ON/OFF ratio” value is on record?
The value was 1.27.

For U7G U10A U11A C12G C13U, which “aptazyme ON/OFF ratio” value is on record?
The value was 1.16.

With U7A U8A U10A U11G C13U as the variant, how does the “aptazyme ON/OFF ratio” value read?
Its value is 1.26.

For U7A U8C U10C C12U C13G, which “aptazyme ON/OFF ratio” value is on record?
Its value is 1.26.

With U7A G9U U11C C12A as the variant, how does the “aptazyme ON/OFF ratio” value read?
The value was 1.34.

Which “aptazyme ON/OFF ratio” value does the source give for U7G U8G G9A U10G U11C C12U C13A here?
Its value is 1.07.

With U7G G9C U11G C12G C13G as the variant, how does the “aptazyme ON/OFF ratio” value read?
The value was 1.36.

Which “aptazyme ON/OFF ratio” value does the source give for U7A G9U U11G C13A here?
The value was 1.15.

For U7G U8C G9A U10A C12U, which “aptazyme ON/OFF ratio” value is on record?
The value was 1.62.

Which “aptazyme ON/OFF ratio” value does the source give for U7A U8A G9A U10G U11G here?
Its value is 1.07.

Which “aptazyme ON/OFF ratio” value does the source give for U7A G9U U10C U11A C13U here?
Its value is 1.1.

With U7A U8A G9C U10A C13G as the variant, how does the “aptazyme ON/OFF ratio” value read?
The value was 1.07.

Which “aptazyme ON/OFF ratio” value does the source give for U8A G9C U10C U11C C12U here?
Its value is 1.

— the RNAGym collection of RNA variant scans (doi:10.1021/acssynbio.7b00057)
